In patent publication US20110268740A1:

Legend:
[1] = target: M2e-VN (Influenza A virus A/VN/1203/04 (H5N1)); assay: ELISA, apparent affinity, purified scFv-msFcγ2c on immobilised M2e-VN

Row | Binder | EC50 [1] [nM] | EC50 (scFv-F052-msFcγ2c) [µM] | EC50 (scFv-E040-msFcγ2c) [µM] | EC50 (scFv-D005-msFcγ2c) [µM]
1 | scFv-D005-msFcγ2c (Fc fusion) DADPAQAAELVMTQSPDSLAVSLGERATINCKSSQSVLYTSNNKNYLGWYQQKPGQPPNLLIYWASTRESGVPDRFSGSGSGTDFTLTINSVQAEDVAVYYCQQYFMTPITFGQGTRLEIKGGSSRSSSSGGGGSGGGGEVQLVESGGALVQPGRSLRLSCRTSGLNFGDYPINWVRQAPGKGLEWVGFIKSKSYGVTTEFAASVEGRFTISRDDSRGIAYLQMNSLKTEDTAVYYCTSSSGFLYYFDYWGQGTLVTVSSASTKGPSVTSGQAGRKLEPRVPITQNPCPPLKECPPCAAPDLLGGPSVFIFPPKIKDVLMISLSPMVTCVVVDVSEDDPDVQISWFVNNVEVHTAQTQTHREDYNSTLRVVSALPIQHQDWMSGKEFKCKVNNRALPSPIEKTISKPRGPVRAPQVYVLPPPAEEMTKKEFSLTCMITGFLPAEIAVDWTSNGRTEQNYKNTATVLDSDGSYFMYSKLRVQKSTWERGSLFACSVVHEGLHNHLTTKTISRSLGK | 0.0515 | – | – | –
2 | scFv-E040-msFcγ2c (Fc fusion) DADPAQAAELVMTQSPDSLAVSLGERATINCKSSQSVLYSSNNENYLAWYQQKPGQPPKLLIYWASTRESGVPDRFSGSGSGTDFTLTINSVQAEDVAVYYCQQYFMTPITFGQGTRLEIKGGSSRSSSSGGGGSGGGGEVQLLESGGALVQPGRSLRLSCRTSGLNFGDYPINWVRQAPGKGLEWVGFIKSKSYGVTTEFAASVEGRFTISRDDSRGIAYLQMNSLKTEDTAVYYCTSSSGFLYYFDYWGQGTLVTVSSASTKGPSVTSGQAGRKLEPRVPITQNPCPPLKECPPCAAPDLLGGPSVFIFPPKIKDVLMISLSPMVTCVVVDVSEDDPDVQISWFVNNVEVHTAQTQTHREDYNSTLRVVSALPIQHQDWMSGKEFKCKVNNRALPSPIEKTISKPRGPVRAPQVYVLPPPAEEMTKKEFSLTCMITGFLPAEIAVDWTSNGRTEQNYKNTATVLDSDGSYFMYSKLRVQKSTWERGSLFACSVVHEGLHNHLTTKTISRSLGK | 0.0464 | – | – | –
3 | scFv-F052-msFcγ2c (Fc fusion) DADPAQAAERVMTQSPDALAVSLGERATINCKSSQSLLYSSNNKNYLAWYQKKPGQPPKLLIYWASTRESGVPDRFSGSGSGTEFTLTINSVQAEDVAVYYCQQYFMTPITFGQGTKLEIKGGSSRSSSSGGGGSGGGGQVQLQESGGALVQPGRSLRLSCRTSGLNFGDYPINWVRQAPGKGLEWVGFIKSKSYGVTTEFAASVEGRFTISRDDSRGIAYLQMNSLKTEDTAVYYCTSSSGFLYYFDYWGQGTLVTVSSASTKGPSVTSGQAGRKLEPRVPITQNPCPPLKECPPCAAPDLLGGPSVFIFPPKIKDVLMISLSPMVTCVVVDVSEDDPDVQISWFVNNVEVHTAQTQTHREDYNSTLRVVSALPIQHQDWMSGKEFKCKVNNRALPSPIEKTISKPRGPVRAPQVYVLPPPAEEMTKKEFSLTCMITGFLPAEIAVDWTSNGRTEQNYKNTATVLDSDGSYFMYSKLRVQKSTWERGSLFACSVVHEGLHNHLTTKTISRSLGK | 0.0459 | – | – | –
4 | SLLTEVETPTRNEWECRCSDSSD (modifications not checked) [M2e-VN] | – | 50.8 | 43.2 | 32.5
